Measurements published in publication PMC10848425, “Selective enhanced cytotoxicity of amino acid deprivation for cancer therapy using thermozyme functionalized nanocatalyst” (Journal of Nanobiotechnology, 2024).

Tests used:
Assay in all cases: Lineweaver-Burk plot of the Michaelis-Menten equation
[1] = substrate: N=C(N)NCCC[C@H](N)C(=O)O; assay type: biochemical, Thermococcus litoralis; details: 70 °C, pH 10.0, free enzyme
Description: Lineweaver-Burk plot of the Michaelis-Menten equation on arginase Tli08105

[2] = substrate: NC(=O)C[C@H](N)C(=O)O; assay type: biochemical, Thermococcus litoralis; details: 90 °C, pH 9.0, free enzyme
Description: Lineweaver-Burk plot of the Michaelis-Menten equation on asparaginase Tli10209

[3] = substrate: NC(=O)C[C@H](N)C(=O)O; assay type: biochemical, Thermus thermophilus; details: 80 °C, pH 9.0, free enzyme
Description: Lineweaver-Burk plot of the Michaelis-Menten equation on asparaginase Ttha0067

B1: arginase Tli08105 (Thermococcus litoralis DSM 5473) (protein)
chain: MLFGIPSSKKPNLYILGIPWDNSSSFRRGCAEGPRAIREATSEELYNSFNEELVNLTEHWSYKDLGDIKADTFEELVEKVNAIVRKHYNGELFLFLGGDHSITYATFKAIKEASNEDFGLIYFDAHPDMYPEYDGDEYSHACTVRRLIEEGWVKGENVVQIGVRAPTREQVEFAKEHGVKIISASGIYRSPVIQVPFEKAYLSFDMDVLDPAFAPGVGNPEPGGLSTRELVEVIKSLNVEIIAFDIVELNPKYDYKGISAFAAAKIIREVLGKAAKTK
notes: recombinant, purified by Ni2+-NTA; free enzyme; expression details in supplement
Km [1]: 1.059 mM | Vmax [1]: 961 µM/min | kcat [1]: 1.25 s⁻¹ | kcat/Km [1]: 1350 M⁻¹ s⁻¹

B2: asparaginase Tli10209 (Thermococcus litoralis DSM 5473) (protein)
chain: MSEKRKLERRGAEDMKRILIIGTGGTIASAKTDAGFKSVLTIDEILEKADIKLKNGYEIDTRNILNIDSTLIQPEDWERIAKEVYKALEDYDGIVITHGTDTLAYTASMLTFMIRGINKPVVLTGSMRPVTEEESDAPRNLKAAIRFAMEDVSGIFVAFMDKIMLGCRTSKIRALGLNAFMSINYPDVAYVKGEEVIYNLPQKRFKPKGEPVLDTKYEPRVVFIRLTPGLDGNAIDALVKAGYRGIVLEGYGAGGIPYRKRDILSKIREITPQIPVVMTTQALYDGVDLTKYEVGRKALEAGIIPAKDMTKETTITKLMWALGHTKNVEEVKEIMHTNYADEIEG
notes: as for B1
Km [2]: 4.340 mM | kcat [2]: 2080 s⁻¹ | kcat/Km [2]: 479000 M⁻¹ s⁻¹

B3: asparaginase Ttha0067 (Thermus thermophilus HB8) (protein)
chain: MSAEVLVYRGSLVENRHRVSLALWGPEGLVAYAGDPGRVAYLRSSAKPFQALALYLTGAVERFGLTEEEVALATASHDGTPRHVEVAARFLGKLGLGPEHLVCGVHPPFSREARAALEAQGLAPTPLHHNCSGKHAGMLAAALALGAPAEGYHLPDHPVQRLNLATLEALSGARPGLATDGCSVPTFALSLARAARAFFLLADPGRAPEAYRTPLLRVREAMRRHPDLVAGPGSVDTLLMERLPVVAKRGADGYYGLALLEGPRGPLGVALKVEDGATLAREVAVVALLRALGLDPGKTPWDRPPVRNHRGLEVGHLEARLGLVWV
notes: as for B1
Km [3]: 6.178 mM | kcat [3]: 1210 s⁻¹ | kcat/Km [3]: 196000 M⁻¹ s⁻¹
